Reference: the domain aggregation screens of Martell et al. (2025)

Experiment: soluble fraction after stress (log2 fold change); higher = more stays soluble; pooled small domains, quantitative proteomics
Conditions: stress: 50 degC
Method in brief: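 Custom libraries of small protein domains were pooled and measured in a high-throughput format, with quantitative proteomics as the read-out. Each library was stressed at 50°C. The value is the log2 fold change in the amount of each protein that stays soluble after stress, used as a measure of aggregation propensity; higher values mean more of the protein stays soluble.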

Row | Sequence | soluble fraction (log2)
1 | HMLGWEDVIQFEEVKGYGQHIWRDGNHLYYVTEEGGIAPQRVVYELPNELFALLESGERTQLEILSKLQ | -3.11
2 | HMNEMEFAQRLRQFRKAKNLTQQELADRLGVSNKSVSRWESGSYPDVGTLVALARALGVTVDELLDPKA | 0.0532
3 | HMKDPSFELMSVAESFYRSGNVDHAVYALEKYLEVYADGDYTDRAHDLLSQARKGLTYPHGYPPLQI | -1.21
4 | HMQDFEEILKNAKIEDFKHTQTGEDLKVLKIEDKIEDFKGFNAYLVKNQIAYYSKFARGFVVKNIEKLQGV | 0.0429
5 | HMPPFDDILAEYYEPLYRHVRRMVVSHDDAKDVMQEAMLRIFQGLDGLKDPSAVRTWVWRIATNEALRH | 0.0662
6 | HMKKYDIKEAQEIAEINRIPGLVTTSHGRRVYFDPKIMQYVSEEQIVKKYGQKTVKMLDQWYVSNILNK | -0.0388
7 | HMNQASLTYSEFIANVESKAITRVTISGDTISGILADGKPFQTIYPMADLELLPILRRSGVDINVKEVQ | -0.117
8 | HMTDLALHIGKTLRELRQRRGWSLDKTAQATGVSKAMLGQIERGESSPTVVTLWRISSGLQASFSEFLPP | -1.61
9 | HMTDFDWSLFTQQLKRFNLFLSYDDREKLQTFQTLYGLNELDLAEYVAKASAGEKNGLNFNYLRQLINKEK | -0.465
10 | HMEGSVTVMVNGESVTMTGKQNYIFVDVFDWYSFDLSAGKGRAIATLVNGKEAEFSQPLANGDNIELYWKE | -0.118
11 | HMAQIVNLPRKNVNGASYYYYEVQPKETIYSISRKLGVSGAEIQRHNPSVADGLKIGQVLYFPAEG | 0.0843
12 | HMKDHKSKWMAKTELDSIAKNLSKKHAISLDYEEDGTRFYAGGQSPLGIGRLFTVFVAPRNGHWSDQLR | 0.189
13 | HMEIPTEEILKQKLYYSISEVASWFKVNTSLLRYWENEFDILQPRKTRKGDRLFRVEDIKNLQLIYLL | 0.107
14 | HMKNENSLLVSRLAEEKIINRAKLVLMEYLKLSEPQAHRYIEKQAMDLQISRAEVAARVLETYE | -0.0477
15 | HMVNGEFIDRIKVILQENNATRKKDRLTKTRMYQLLQEEGYEGSYSAFTYQVRIIEEELGINNK | -1.51
16 | HMPAAFALLTDREREIAALIAQRLTNREIAEKLYLSEGSVKQYVNQLYAKLGIEGDTRTKRRRLAEQAK | 0.11
17 | HMDIYLTAFKTTSNQVTLNGIARSDLIISEFMRDIRDAKLFGEPVLQVIQNKNLNNVQARVFELVVPL | -0.263
18 | HMSGKWSILILHALEQGPKRFNVLHRELSGITQATLTKQLRQLEEDGIILRKAYPQIPPKVEYQLTEIG | -1.74
19 | HMKFHENLIALRRREGWSQEELGNRIGVTRQTVSKWELGLTTPELEKLVQLADVFGMTTDQLVGR | -0.146
20 | HMDYEVPEELEEKFSENPQFKEAFDNLTPGRQHQYIYHISQAKRSQTRINRIEKYYEHILNGKGMQD | 0.0659
21 | HMTKKEFLDILTESLAGNVPASEIEENIRYYKDYIENGEESEEKALEQLGDPHLIARTIIDSFIA | -0.127
22 | HMNRGITVIVNNEEIKMKEKAQYVVVDIFDYIDFDLTVPKGSINITLNGENTPYTASIKDGDVIEVFW | -0.266
23 | HMETGNEDYRVGKELAYDGNYKAATIYLMKSIKDDPNNPDAFNMLGFSHRKLGNNDEAYIYYNKALEL | -0.387

Row | Sequence | soluble fraction (log2)
24 | HMSGEPKNERQIEVPDVTKKSIREANNILTSEGLRLRIEGTGLAVSQKPAAGTMVEPDTIITVTFQAP | 0.35
25 | HMFTYDLSERELTIIELVAKGLNNKELADTLFLSEGTIRNYLSTLLNKLDLRDRTQLAIFYYQHL | -2.62
26 | HMGQAAHYEGVKGDGESDTDVISRVLTAAGAEAQKDDIFVVKELIAGGKYSYTAYVYDGSVWAAM | -0.266
27 | HMAEVDREEALRIALAHAAVARRDVRNLKIERGEENGVPVYKVEFETAFGDFDVAVSRRSGDVVDAD | 0.0689
28 | HMSYGKVQFVIDAKDAVLSIDGKETDYEKPVKLTYGSHTITVYSSDYDTWKRNLYVNSEKSTVVINLA | -2.72
29 | HMDKINQEAIEDEAGLWLAKIDGRQLAQEEVRELIAWMRRSDFHREYLITLARQWDGMAALNKLATLFP | -0.976
30 | HMDPTVSGQTGSVVREIRPGVPGEVELSVPLYGIRRWQAMADGILAEGTRVTVIQAEGVRLSVRPV | -0.0839
31 | HMDQVYYDLKSLIELLPADQMEVLKMRYFEELSFKKIAQKIDVSINTALGRMRYALINLRALSKKHHID | -0.189
32 | HMAIEMSTITKRVTSTGEIRYRALLQIRREDVNYTESRTFSKKSLAEAWLKKREVELEANPELLHQ | -1.32
33 | HMEQVVFNGTGRRKSSIARVRIMSGKGNITVNGKALDEYFGEETLKVIVRQPLTVTDTLDKYDVIATVK | 0.203
34 | HMESSNLESQLKKGIVPNLNGLSAKDALFLLENSGFNVKLYGMGSVKKQSLEAGKKYNKGDKITLIL | 0.112
35 | HMGYDSYDADTIPKLKIGSIVEHPKFGEGSIISKAGAEVTIAFKIKGVKKINLEYTSIKVLK | -0.935
36 | HMSLANTSVKEMLNDLVKNEEPSKPLSDEALVKIFKEKGVKIARRTVAKYRAELNILPSHLRRT | -0.749
37 | HMYSMSAPMPGVILEIKVAPGDQVNKGDVVMVLEAMKMKNDLHAARTGTVESIDINSGEQVKYGQVLLRFV | -0.14
38 | HMGTPKMPLSLYLSMVENLRSLKRFALVNQQVKDGFVFFNDVAGIKRLQELLNYHNTGEKPSE | -1.39
39 | HMTSLYDILGIAKTADSQTIKTAFKKKALLYHPDKNNGNLKKEEIFKKISTAYQILSDPKSRANYDLSIA | -0.115
40 | HMIAVLKQGVSKQQVENLITWFRSRGLDVHISEGKFQTIIGLIGDTSKVDIDLLNGLEIIESVKRI | -0.0376
41 | HMRSIMAVSNYRHKKILEMVYQRKSVSADELAAEFGVSKITIRRDLDTLAMDKLLERTRGGAISISD | -2.67
42 | HMQTGYHVRITASTLNVRRDHSASSAVATQVRRGEVYTIVDEYNNGGTLWGKLKSGAGWIALKYTQS | -1.81
43 | HMVLTYYSVLGVKTDATTEEIKSTYKQLAIRNHPDRGGSEEVMKMINLAAEILSDPKSRKEYDLSLDA | -2.87
44 | HMEDSHIYPVSFNGKMRFKLELPVSMNKKEIEEVVLQHEDAQKWLNGQNPKKVIVVPKRIINIV | 0.0081
45 | HMAYLTGFHAIEELIRAGKAKGPLLVANAGPRARTIMSLATDNKIRIDRLGEHELNRLAPGNRGIALYVE | 0.13
46 | HMEQISIETRIEQLLARLSETEASGFEELFADTSSRADLITTFLALLEMIRLKLVRVFQDGSFGPIRIYKR | -0.27

Row | Sequence | soluble fraction (log2)
47 | HMVRSKLEIVPVPEDAVVKIAGLKRLTYQAYQNEDVPYMVYKNGYEAQSGTVFMDTDKTLTVTLEESP | -0.0311
48 | HMGWEPTPVLVAARDISGGTVLDQDMLRVEAIPSRLVTPSIVRSDLLASVQDAKLLLPMKQGDLLNFNMLQ | -0.064
49 | HMEVNLEPLIALLRKHRDLDLSGYSKSTLGRRITYFMGLNKISSIDELGRRLAEDDLLFQEFLDKLT | -0.0655
50 | HMPFDWSAFDWKGWADEALAIIKTANQDQMNKWTEDNEKIIVQAETAAPDIYKTVGDEYDKKMESFN | 0.11
51 | HMKRITGHLTEKNKKWYAVINLYDTDGKRKEKWQGLNLDANKGNKREAEHRLRQILDQYNTD | -0.0127
52 | HMHFIMEYRIRAYVDELFESAPRTQRAYELKIELTQNLIDKYYALVSEGKSEQDAYNLTVMSIGDVREL | -0.298
53 | HMEAEQLEAIRSALQQLSDMNRTVFNLHVVDGYKHEEIAAMLNITTGTSKAHLHRAKKRLRELID | -0.975
54 | HMSERIITFGEATREAMLEEMRADERVFVYGEDIAKQGGIFGQFAGMKDEFPERVLDTPISETALVGAG | 0.0621
55 | HMRSGEDESFSAGLLEYPHYTRPAEFEGHRIPDILTSGDHAKVDAWRQEMSEHITRERRPDLWEMYKKK | 0.0901
56 | HMGTIRAPMPGTILKINVVDGDSVTKGDVLLILESMKMENSITSPKTGSVTSVYVSEGDPVQHGETLIDL | -0.147
57 | HMDGYTVYTNWGSDTNVARSDQQIQSQIPQLSGATIVGVWTKPIATGGTSYKIRYRTNSGAFTEIDVDQ | -0.105
58 | HMEDLDKIISAYLDENPQIVSDYGKGNKKAVNSAIGFVMKSTGGKYSSSDIVDAVRSMIVSISV | -0.482
59 | HMSKSVEQRRQQIVAWVKEHGQSQVEDLAVRFATSEVTIRKDLAALSQQGLLIRQFGGAVPVPA | -0.661
60 | HMTTEIVRMKKDVKIGQEITAKDIEVVEVGAYNLPDEVIRSSEEVVGKYVSSELLKGEYVLPSKISDTP | 0.0729
61 | HMTRQPSAKEHAVLTAVKEGLRRDGRAPTVRALADMTGAASTSTVQRRISALIDLGLLRRTDGTLEVVE | -0.000402
62 | HMFAQDQLFKKDNSKVDVKILEINTTEIKYKLFTYQDGPTITVAKKDVALIIYQNGVHEVIT | -2.15
63 | HMPKKLIWERTTSKLQLYITQDRYELKTPLMTIPFTSKSKMMVYLQQRYHLDMQEYRQIYDAG | -2.21
64 | HMNAESLIGDRAVVTVAIERNKRGRVDVTGQDWAATTRDGEEIKVGQEVLVVGISGVALIVEER | -0.426
65 | HMAQLPADMSKVKSADISEAQLQEFIQKATSSGYNMNQIEMEFAKRGMSENEVSLLRPRLRRLMAS | -0.031
66 | HMQPPKIISTVEPYREVVREYLKQGVEMTAIWQRLRENYQYTGSYSSVRRFVAQLEPRQPEA | -1.01
67 | HMSQKVQEDFLGDIRKNEIAVTVFLINGVKLQGVITWFDDASILLRRDGHTQLIYKHAVSTIMPGVAVDI | -0.118
68 | HMVFKSAQEGLDFYSKQLNDVDATLGRIRRGEESGNGLYGSNRVKNLEEQRKKLDSFVTAYRNAVNAT | 0.08
69 | HMEFLLAIQPFVLLTDHANLTFLREQTDSMMKRIQINISGFEIEFRYVPGLTNILPDKMSRV | -0.0431
